Results taken from the DeepSol protein solubility set.

Experiment: soluble on expression in E. coli; label from the status in PepcDB or PDB records
For “MQVIAFIAPLIDKGMDPLTGVPIRQEVPRLMERTFQENQAETYVLFLINLDRFKLVNDSLGEGYGDQVLQTLVRRLLWQLPNQQWIARVSGDEFIACAAIKGELPKKETLATYISSIIQQPFQVDEVQFTMTASIGAAVYPMDGKSVEMIWNSLERALRHAKARGGNCVSWFCQELKDEWIHPFRLENDLRRAVENQELEHHHHHH”, the “soluble on expression in E. coli” value was “not soluble”. For “MQVLWSNPIELGMTGGDVRMVKGPSDALRCLADHWPYRGPYYVAARSACRAAIDGRRTCEEARRLFLSAAEEARLKAH”, the “soluble on expression in E. coli” value was “not soluble”. For “MQVSGSSGNRIWDANLSQNLTYTWTPQTYSGFYYDLDTGEGSENMTIQLTEGSRSVQRNGLQYETRPIETNFEYGNWGSYQVIGFMAERYFAGYTENSNFVNDDISVISDGQLSKILIDSDDRKSLYTGSSLILEEGYSLNIVEVDVNGNTVWVQLEKDGDVIDNGFLSSNSNYVYETDLGDADDVPLIAVHLAQIFRGTETNAIFVEGIFQISDEYVQIENGDRFGKMEISSTSSSGIIMRNRDSFTLGRGDTVDIMGKLSFVVADSSELRFAPIVEISEPGTYELRLEHHHHHH”, the “soluble on expression in E. coli” value was “not soluble”. With “MQYINYRENRRRGTADFPLEYYHVTASHPQYVMSFHWHVEFELIRILSGSLTVTIDEIEFLAEAGDSIFIPAGSIHSGIPDDCVYECLVFDMNMLMNKTDSCCRFLRQITDHEVSVQTHYPKICNTIHRTLWTLFDAAASKKEGYQLVVFGAMYQFFGTLFSEGFCKNAPDEEHRSHKRILQLKQALEFMESSYNLPLTLEEISGSVNMSPKYFCRFFHEMTHRTPIDYLNYYRIERACYQLITTNLSITEIAYASGFNDLSYFIKTFKKYKGTTPKKYLKI” the “soluble on expression in E. coli” value was “not soluble”. In the case of “MRAHEIEYKLYGDDMQFVEIELDPEESVIAEAGAMMMMEDYIEMETIFGDGSGPSGGLFGKLMGAGKRLVTGESMFMTVFTNTGHGKRHVSFAAPYPGKIIPVDLTEYQGKVVCQKDAFLCAAKGVSLGIEFTKKIGTGFFGGEGFIMQKLEGDGLAFMHAGGTVYKRELKPGEKLRIDTGCLVAMTKDINYDVEFVGKVKTALFGGEGLFFATLEGPGTVWIQSLTLSRLAARLTSPAAQSTGEGSVLGGLGRLLDGKE”, the “soluble on expression in E. coli” value is reported as “not soluble”. For “MRCVVYSIAKSSPLELVKIYQKQCRQFDCELELVDLFPKNTANAQKVSKKLAQKSYSLAFEPYLNPKAKNIALHPKAQRGDSFAFSKMLENHLNINFFIAGAYGFEENFLKDCQAWSLSEMTFSHEVAKIVLCEQIYRALSIIFKHPYHKLEHHHHHH”, the “soluble on expression in E. coli” value was “not soluble”. For “MRDEKRKAIPAIGFYPQEEISTGTTLIAMEYNGGVVVGTDSRTSAGSFITSRATNKITPITDNMVVCRSGSAADTQAIADIAKYHIDVYTMTENKPVTIYRSSQIFRQFLYNYREQLSASVLVAGWDEELGGQVYAIPIGGFVSRQRSTASGSGSTFVQGFLDSQWRPNLTLEECKAIVKQAVGLATFRDGSSGGVVRLAVINKAGSQFELFRPDKPGFPFVQTPTPHLSFPPHIEQVL”, the “soluble on expression in E. coli” value was “not soluble”. In the case of “MRDIMSSPPITTLPMTSVKEAAKIMLENRVGSLIVVNERNTLLGILTKTDIIREVVAKGLDPESVRVGDIMTRNPYYVYTDDSVERAASLMGEHNIGHLPVLDPETEKPVGIVTKTDIVKLAPNYINVIYSLKQEIDRRERLKRIRK”, the “soluble on expression in E. coli” value is reported as “soluble”. In the case of “MREDHSPRRNNTIENTLTELLPNRLYFGCFPNPDAIDKSDKSVKKTCFININNKFHYEPFYEDFGPWNLSVLYRLCVQVGKLLEVEEKRSRRVVLFCQDDGTGQYDKIRVNTAYVLGAYLIIYQGFSADDAYLKVSSGETVKFVGFRDASMGSPQYLLHLHDVLRGIEKALKFGWLDFSDFDYEEYEFYERVENGDFNWIIPGKILSFCGPHNESREENGYPYHAPDVYFDYFRENKVSTIVRLNAKNYDASKFTKAGFDHVDLFFIDGSTPSDEIMLKFIKVVDNTKGGVAVHCKAGLGRTGTLIACWMMKEYGLTAGECMGWLRVCRPGSVIGPQQPYLIEKQKFCWSLSQSNGVHLTQNKEEKRNVRRLVNQVDDINLGEERISPKSRENTRPNILRRRVQVQNGRSTAPVTIAPAGTSESRRSTKPSRVVDETALDDQGRSQGDRLLQLKAKHQHESETTSPNSSSSRRFVKSSTPQMTVPSQAYLNRNREPIIVTPSKNGTSSGTSSRQLKTTPNGNVAYRTRNSSGNTTSTLTRTPASAVFPSMASRRSETTRYLSPTTPIKPMSPSYTDGTSPRYKARLRSENPIGSTTSTPFSLQPQFGLVRVPPDSPHSIMAHRPPPTTSSRAPLSPHNYSTTQGYSTSSRGLYGDKKPLARGSVSTSTLPSMYMTRKMSENGAVEVEITTSYVEDRKAAEQIDPSSTPPEPKRRFVLVSRKIVSKEVPSAGPTCSNDPRLNYASTRKLPIKISHRLCQICRTIKPIADISMMTDENEKLFILLAAIFQRKLFVEECTRIYKQPAVYTCSSHYSEASTAILNMFGVGGALRIFRARPRKVSQVEKFASHLMGKQFEEDKLIHSAYMFVLNHPEAGAVTGPIIKEEDIPFEETVECSSTTAVNGILPKCFRQPRKQKLEEDSCSSSILRIIKKTTPSLPNRSYTMINQNMEHPLQCCYCLEVYEKRYMTQVPKTEQRIARWVAILGEQFRIRLRMKPANYMCRKHFPQADFSSRGRLLKTAVPNVVSQEKVLAFKLEGNTFVEVKEDNTNIKMEKGTDSEIDIEN”, the “soluble on expression in E. coli” value is reported as “not soluble”. In the case of “MREKFYEKYYYAKSDIEGQDGGVVTAFLKYLLENGKIDGAIVVGDECWKPVSLVVQNAEDLLKTAKSKYAISTLDALRKAGEMGLEKVALEHHHHHH”, the “soluble on expression in E. coli” value is reported as “not soluble”. In the case of “MRELKVVGLDADGKNIICQGAIPSEQFKLPVDDRLRAALRDDSVQPEQAQLDIEVTNVLSPKEIQARIRAGASVEQVAAASGSDIARIRRFAHPVLLERSRAAELATAAHPVLADGPAVLTMQETVAAALVARGLNPDSLTWDAWRNEDSRWTVQLAWKAGRSDNLAHFRFTPGAHGGTATAIDDTAHELINPTFNRPLRPLAPVAHLDFDEPEPAQPTLTVPSAQPVSNRRGKPAIPAWEDVLLGVRSGGRR”, the “soluble on expression in E. coli” value is reported as “soluble”. With “MRERLKGVIKKGVKVFFTDESGIHHDPSKVRRLGLYNVPVDYPSRKLNVLASIPLFDGVPCFMSTYSNVNFKIFAEFLRLFRNSGPIVLILDSAKFHKNAYVFSVASQLGITLLFLPPYSPDLNPIEFGGTWFVG” the “soluble on expression in E. coli” value was “soluble”. In the case of “MREWINQSKIDLLAKEIGEENVPILVNIFLGELNDYQSKLVSDTVADKLGYLKEISHALKSSAASFGADRLCAKAVELDSRAKSGEMMDISLEVEHMLELLKQTHQCYSDLVH”, the “soluble on expression in E. coli” value is reported as “not soluble”. For “MRFFLSPPHMGGNELKYIEEVFKSNYIAPLGEFVNRFEQSVKDYSKSENALALNSATAALHLALRVAGVKQDDIVLASSFTFIASVAPICYLKAKPVFIDCDETYNIDVDLLKLAIKECEKKPKALILTHLYGNAAKMDEIVEICKENDIVLIEDAAEALGSFYKNKALGTFGEFGVYSYNGNKIITTSGGGMLIGKNKEKIEKARFYSTQARENCLHYEHLDYGYNYRLSNVLGAIGVAQMEVLEQRVLKKREIYEWYKEFLGEYFSFLDELENSRSNRWLSTALINFDKNELNACQKDINISQKNITLHPKISKLIEDLKNKQIETRPLWKAMHTQEVFKGAKAYLNGNSELFFQKGICLPSGTAMSKDDVYEISKLILKSIKAGSHHHHHH”, the “soluble on expression in E. coli” value was “soluble”. With “MRFKVGIEFDESLELPFNYNKILQGFIYRNIMDKDLARFIHDRGFSYEKRKYKMFTFSRLQGKFSIDSKKKKIIYQSPVELVVSSCYEDFFIDLSLSLLRRDVEIAGHKAYVSKMDIIMEEPKSIQKIRMLSPVTAYSTLDDKRTVYFSPYNHDFKRIIKENLIKKYKAFYKDDSKDNVDFDIELVSDKYAKVISSYDGFIIEGWMGDFVLKGDQEVIKLAYDAGIGGKNSQGFGCFKLI” the “soluble on expression in E. coli” value was “soluble”. With “MRGLDYRWIEALDSVVSKGSFERAAEQLFISQSAVSQRIKQLEKYLAQPVLIREQPPRPTLVGKKLLGLYRRVCLIEQELVPELTNQEHVRPVSMSIATNADSLATWLLPALDKVMKSRQVELNLVIYGESRTLDKLKNGEVVGAISLEPQPITGCSAEYLGQMEYLCVASPEFYQKYFAKGVTPRSLIKAPAVSYDQYDELHNKFLWDYFAVPRDKVINHTVGSSEAFVRLALSGAAYCLIPRLQIISELESGALINMTPDFMLSYPIFWHHWQLETGVLLEISEAITAYAKSVLPQ” the “soluble on expression in E. coli” value was “not soluble”. In the case of “MRGSHHHHHHGRSLNPLSTPQFDSTDETPASYNLAVRRAAPAVVNVYNRGLNTNSHNQLEIRTLGSGVIMDQRGYIITNKHVINDADQIIVALQDGRVFEALLVGSDSLTDLAVLKINATGGLPTIPINARRVPHIGDVVLAIGNPYNLGQTITQGIISATGRIGLNPTGRQNFLQTDASINPGNSGGALVNSLGELMGINTLSFDKSNDGETPEGIGFAIPFQLATKIMDKLIRDGRVIRGYIGIGGREIAPLHAQGGGIDQLQGIVVNEVSPDGPAANAGIQVNDLIISVDNKPAISALETMAQVAEIRPGSVIPVVVMRDDKQLTLQVTIQEYPATN”, the “soluble on expression in E. coli” value is reported as “soluble”. With “MRGSHHHHHHGSDLGKKLLEAARAGQDDEVRILMANGADVNANDWFGITPLHLVVNNGHLEIIEVLLKYAADVNASDKSGWTPLHLAAYRGHLEIVEVLLKYGADVNAMDYQGYTPLHLAAEDGHLEIVEVLLKYGADVNAQDKFGKTAFDISIDNGNEDLAEILQKLN” the “soluble on expression in E. coli” value was “soluble”. For “MRGSHHHHHHGSIEGRSAVTCDDYYYGFGCNKFCRPRDDFFGHYACDQNGNKTCMEGWMGPECNRAICRQGCSPKHGSCKLPGDCRCQYGWQGLYCDKCIPHPGCVHGICNEPWQCLCETNWGGQLCDKDLNYCGTHQPCLNGGTCSNTGPDKYQCSCPEGYSGPNCEI”, the “soluble on expression in E. coli” value was “soluble”. In the case of “MRGSHHHHHHGSMQILLANPRGFCAGVDRAISIVENALAIYGAPIYVRHEVVHNRYVVDSLRERGAIFIEQISEVPDGAILIFSAHGVSQAVRNEAKSRDLTVFDATCPLVTKVHMEVARASRRGEESILIGHAGHPEVEGTMGQYSNPEGGMYLVESPDDVWKLTVKNEEKLSFMTQTTLSVDDTSDVIDALRKRFPKIVGPRKDDICYATTNRQEAVRALAEQAEVVLVVGSKNSSNSNRLAELAQRMGKRAFLIDDAKDIQEEWVKEVKCVGVTAGASAPDILVQNVVARLQQLGGGEAIPLEGREENIVFEVPKELRVDIREVD”, the “soluble on expression in E. coli” value is reported as “soluble”. For “MRGSHHHHHHTDPALRASIKNLPADYLLAAQQGDIDKVKTCLALGVDINTCDRQGKTAITLASLYQQYACVQALIDAGADINKQDHTCLNPFLISCLNDDLTLLRIILPAKPDLNCVTRFGGVGLTPACEKGHLSIVKELLAHTEINVNQTNHVGWTPLLEAIVLNDGGIKQQAIVQLLLEHGASPHLTDKYGKTPLELARERGFEEIAQLLIAAGAGLCGR”, the “soluble on expression in E. coli” value was “soluble”. With “MRGSHHHHHHTDPHASSVPLEWPLSSQSGSYELRIEVQPKPHHRAHYETEGSRGAVKAPTGGHPVVQLHGYMENKPLGLQIFIGTADERILKPHAFYQVHRITGKTVTTTSYEKIVGNTKVLEIPLEPKNNMRATIDCAGILKLRNADIELRKGETDIGRKNTRVRLVFRVHIPESSGRIVSLQTASNPIECSQRSAHELPMVERQDTDSCLVYGGQQMILTGQNFTSESKVVFTEKTTDGQQIWEMEATVDKDKSQPNMLFVEIPEYRNKHIRTPVKVNFYVINGKRKRSQPQHFTYHPV” the “soluble on expression in E. coli” value was “soluble”. With “MRHFDIAITGAGLAGQIAAIALARAGRHVALIAPSSEKKDQRTTALMDQSIRFMDRLGLWSRIAPSAARLSTMQIIDGTDRLLRAPTVQFRSSEIGLDAFGWNIPNEALLGVLSEAVEQEHNITRLDTTAETIDIGNDRISVTIADGEVLSADFLIGADGRKSMVREAAGIGVKSWSYPQTAVVLNFSHSRPHGNVSTEFHTPTGPFTQVPLPDDRSSLVWVVTPQQAEELTALPLETLSLKVEERMQSMLGAVTVENSVQAWPLSSMTAHRFGKGRVALIGEAAHGFPPIGAQGLNLSLRDIIALTELLGAVSDRPIAADAGSSFDRKRRADVYSRTLSVDLLNRSLLSDFLPVQMARAAGLHVLSGIGTLRSMVMREGIEPGRGLKALPSLLFGSFKKAGLEHHHHHH” the “soluble on expression in E. coli” value was “soluble”.
